Ends that are not written are not given here. * marks the point of attachment. FITC = O=C1OC2(c3ccc(O)cc3Oc3cc(O)ccc32)c2ccc(NC(=S)*)cc21; Acp = not defined here
Tests used:
MCF7 cells [1] = test: MTT cytotoxicity assay; type: cell-based, human; conditions: MCF7, range of peptide concentrations, 24 h and 48 h, n = 3, p > 0.05
Description: (§1) HSC-T6 and MCF7 cells were seeded at a density of 8000 cells/well in 96-well culture plates overnight before incubation. The cells were washed with PBS and were treated with Dot1l or Dot1l/pDNA complexes of different concentrations at the indicated times. After rinsing with PBS, 20 μL of 5 mg/mL MTT in PBS solution were added to 80 μL of serum-free media and incubated for 4 h. After that, the culture medium was discarded and 150 μL of dimethyl sulfoxide (DMSO) were added into each well to dissolve the formazan crystals. The absorbance of DMSO-dissolved solution was read in a Multiskan Spectrum (Thermo Fisher Scientific, Waltham, MA, USA) reader at 490 nm.

[2] = Flow cytometry analysis of cell cycle and cell apoptosis; type: cell-based; conditions: 10 μM peptide
Description: Cells and Dot1l peptide (10 μM), following the same method as described before, were plated with treatment in a six-well plate format. Cells were then harvested and pelleted in washing steps with PBS three times by centrifuging for 5 min at 1023 rpm. The supernatant was removed, and cells were resuspended in PBS. Cells were then fixed in 70% cold ethanol in PBS for 30 min. After washing three times with PBS, the fixed cells were stained with 0.5 mL PI/RNase A solution or with the Annexin-V/PI Apoptosis Detection Kit (Elabscience, Wuhan, China), following the recommended methods. Quantification of cell cycle states or cell apoptosis was acquired by fluorescence of each sample in BD FACSVerse™ flow cytometer.

MCF7 cells [3] = test: Lactate dehydrogenase leakage assay; type: cell-based, human; conditions: MCF7, different concentrations, 1 h; Supplementary Figure S4A
Description: (§2) Lactate dehydrogenase (LDH) assay was conducted to measure the release of lactate dehydrogenase from damaged cells. Cells were seeded at a density of 1.5 × 10^5 cells/well to 24-well plates for overnight culture and peptides at indicated concentrations were added as described above. After 1 h incubation, 50 μL of cell-free supernatant were collected and added to each well, including controls and cell-free wells filled with 50 μL of LDH assay buffer. Reaction was conducted at room temperature (RT) for 10 min according to the manufacturer’s recommendations and the Optical Density (OD) was read in a Multiskan Spectrum (Thermo Fisher Scientific) plate reader at 570 nm.

HSC-T6 cells [4] = test: Lactate dehydrogenase leakage assay; type: cell-based, rat; conditions: HSC-T6, 2.5-10 µM, 1 h, 0.1% TritonX-100 positive control, n = 3, p > 0.05 vs NC
Description: as §2

MCF7 and HSC-T6 cells = test: Comparison of penetration efficiency of different CPPs; type: cell-based, human, rat; conditions: Supplementary Figure S2D
Description: (§3) All types of cells were suspended in 0.5 mL media and seeded at a density of 1.5 × 10^5 cells/well on a 24-well plate for 24 h. After washing with PBS twice, the indicated cells were incubated with indicated concentrations of FITC-CPP-Dot1l, FITC-NCO peptides, or purified protein in 0.5 mL serum-free media/well for 1 h. After incubation, cells were rinsed three times in PBS and then imaged by fluorescence microscopy (Nikon, Tokyo, Japan). To evaluate the cellular uptake efficiency of indicated treatment, the cellular uptake of indicated concentration of CPP was quantified with multimode spectrophotometry (Tecan, Mannedorf, Switzerland). The incubation and wash procedure were the same as above. Cells were then lysed with 0.3 mL/well lysing buffer (0.1 M NaOH) for 10 min and centrifuged at 14,000 rpm for 5 min. The fluorescence intensity in the supernatant was read using Multimode spectrophotometry (Tecan, Mannedorf, Switzerland) at 485 nm excitation and emission at 535 nm. Protein concentration of supernatant was examined by the Bradford protein assay kit following the manufacturer’s recommendation. The fluorescence of cellular uptake is expressed as fluorescence intensity per mg of total cellular protein. Experiments indicated in the text were repeated at least three times.

red blood cells (RBC) = test: Hemolysis assay; type: cell-based; conditions: 2.5-10 µM, 2 h, absorbance 450 nm, 0.1% Triton X-100 positive control, n = 3, p > 0.05 vs NC
Description: To examine the membrane integrity, red blood cells (RBC) were used to conduct hemolytic analysis. After separation of RBCs by centrifugation for 10 min at 500 rpm, RBCs were collected and carefully washed with PBS. A 20% v/v RBC suspension was used for further experiments. In a typical experiment, 25 μL of RBC suspension were added to 225 μL peptide dilutions at different concentrations. Following 2 h of incubation, samples were centrifuged (500 rpm, 5 min) to discard cells and the membrane fragment. Supernatant samples (50-μL aliquots) were transferred to a clear 96-well plate and hemoglobin absorbance was read at 450 nm. Experimental design contains negative controls and positive controls (RBCs treated with 0.1% Triton X-100).

MCF7 cells [5] = type: cell-based, human
Description: as §3

HSC-T6 cells [6] = test: MTT cytotoxicity assay; type: cell-based, rat; conditions: HSC-T6, range of peptide concentrations, 24 h and 48 h, n = 3, p > 0.05
Description: as §1

[7] = test system: MCF7, B16, HSC-T6, Caski, and HepG2; test: Cellular uptake of FITC-labeled Dot1l peptide in different cell lines; type: cell-based, human, mouse, rat
Description: as §3

MCF7 cells [8] = test: Uptake mechanism: temperature and endocytosis inhibitors; type: cell-based, human
Description: as §3
The uptake mechanism of Dot1l in MCF7 cells was examined through endocytosis inhibitors. Peptide incubation at indicated different temperatures was measured to investigate the influence of temperature on peptide internalization (physical means of inhibition of endocytosis). […] The uptake efficiency was detected using the same protocol as the one shown above.

## FITC-(Acp)-KARKKKLNKKGRKMAGRKRGRPKK ({FITC-Acp}-KARKKKLNKKGRKMAGRKRGRPKK; reading uncertain) [Dot1l, FITC-labeled 24-residue arginine-rich cell-penetrating peptide derived from human Dot1l protein]
MCF7 cells [1]
  Inhibition of cell growth (MTT): no significant inhibition
[2]; Annexin-V/PI
  Cell apoptosis, control vs peptide treatment: did not show significant differences
[2]; PI/RNase A staining
  Cell cycle, control vs peptide treatment: did not show significant differences
MCF7 cells [3]
  Membrane disturbance (LDH release): no membrane disturbance
HSC-T6 cells [4]
  Membrane disturbance (LDH release): no membrane disturbance
MCF7 and HSC-T6 cells
  Penetration efficiency compared with other CPPs: weaker than hPP10, but significantly higher than that of TAT and MT23
Red blood cells (RBC)
  Membrane disturbance (hemolysis): no membrane disturbance
MCF7 cells [5]
  Fluorescence signal after trypan blue quenching of cell periphery signal: the fluorescence signal persisted
  Intracellular fluorescence signal with 5% DMSO pretreatment: highly increased
  Penetration efficiency with longer incubation time: not promoted
HSC-T6 cells [6]
  Inhibition of cell growth (MTT): no significant inhibition
[7]; 5% DMSO pretreatment, Supplementary Figure S1C
  Penetration in different cell lines after 5% DMSO pretreatment: significantly increased
[7]; MCF7, B16, HSC-T6, Caski, HepG2, non-DMSO pretreatment condition
  Penetration in different cell lines: could penetrate into all different cell lines efficiently without apparent cell line specificity
MCF7 cells [8]; MCF7, 5 μM wartmannin (PI-3 kinase blocking agent)
  Internalization with wartmannin compared with control: no significant differences
MCF7 cells [8]; MCF7, 40 µM sodium azide (oxidative phosphorylation inhibitor)
  Internalization with sodium azide: not blocked
MCF7 cells [8]; MCF7, 50 μg/mL heparin (HSPG competitor)
  Uptake with heparin: could not block Dot1l uptake efficiently
MCF7 cells [8]; MCF7, 5 mM MβCD (lipid raft-mediated endocytosis inhibitor)
  Internalization with MβCD compared with control: no significant differences
MCF7 cells [8]; MCF7, 50 mM ammonium chloride (anti-acidification agent of endocytic vesicles)
  Internalization with ammonium chloride: not blocked
MCF7 cells [8]; MCF7, 450 mM sucrose (clathrin-dependent endocytosis inhibitor)
  Internalization with hyperosmotic sucrose compared with control: no significant differences
MCF7 cells [8]; MCF7, means ± SEM (n = 3)
  Fluorescence intensity at 37 °C compared with 4 °C: no apparent differences
  Fluorescence intensity at 37 °C compared with 25 °C: significantly higher
MCF7 cells [8]; MCF7, serum (10% FBS)
  Internalization in the presence of serum containing incubation medium: blocked
